Test [1] has as its target T1, BAFF (Sino biological, 10056-HNCH) (UniProt Q9Y275 134-285, biotinylated in the blocking ELISA (site not stated)).
T1 construct: also called BLyS
As to the kind of experiment: ELISA, BAFF coated at 1 ug/mL, anti-human IgG-HRP. The method, then: (§1) In addition, the BAFF binding activity of the constructed TACI-Fc fusion proteins was assessed, and the TACI-Fc fusion proteins' functional activity of blocking the binding of BAFF to BAFF-R was assessed (see Example 1 for the experimental method).
The BAFF binding activity of the TACI-Fc fusion proteins was assessed as follows: BAFF (Sino biological, 10056-HNCH) protein was diluted with a pH 7.4 PBS (BasalMedia, B320) buffer to 1 μg/mL, and the resulting dilution was added to a 96-well microplate (Corning, 3590) at 100 μL/well. The plate was incubated overnight at 4° C. After the liquid was discarded, 5% skim milk (BD, 232100), diluted with PBS, was added at 300 μL/well for blocking, and the plate was incubated at 37° C. for 2 h. After the blocking, the blocking solution was discarded, and the plate was washed 3 times with a PBST buffer (pH 7.4 PBS containing 0.10% tween-20). Serially diluted test antibody or fusion protein solutions were added at 100 μL/well, and the plate was incubated at 37° C. for 1 h. […] The plate was incubated at 37° C. for 1 h. After the plate was washed 3 times with PBST, the chromogenic substrate TMB (KPL, 5120-0077) was added at 100 μL/well. The plate was incubated at room temperature for 10-15 min, and 1 M H₂SO₄ was added at 50 μL/well to stop the reaction. The absorbance at 450 nm was measured using a microplate reader. Curves for the binding of the antibodies to the antigen were fitted using software, and EC₅₀ values were calculated.
On the technique in general: In an ELISA, binding on a coated surface is turned into a signal by an enzyme label.

In test [2] the target is T1, BAFF (Sino biological, 10056-HNCH). As to the kind of experiment: competition ELISA: fusion protein pre-mixed with biotinylated BAFF, added to coated BAFF-R. The procedure: The above TACI-Fc fusion proteins' function of blocking the binding of BAFF to BAFF-R was further assessed as follows: The receptor protein was diluted with a pH 7.4 PBS (BasalMedia, B320) buffer to 2 μg/mL, and the resulting dilution was added to a 96-well microplate (Corning, 3590) at 100 μL/well. The plate was incubated overnight at 4° C. After the liquid was discarded, 1% Casein blocking solution (Thermo, 37528) was added at 200 μL/well for blocking, and the plate was incubated at 37° C. for 2 h. After the blocking, the blocking solution was discarded, and the plate was washed 3 times with a PBST buffer (pH 7.4 PBS containing 0.1% tween-20) and set aside for later use. A biotinylated ligand protein at a fixed concentration was mixed with a serially diluted antibody or fusion protein, and the mixture was pre-incubated at 37° C. for 30 min and then added to the blocked microplate. The plate was incubated at 37° C. for 1.5 h. After the incubation, the plate was washed 3 times with PBST, and streptavidin-HRP (Invitrogen, 434323, diluted in a 1:4000 ratio) was added at 100 μL/well. The plate was incubated at 37° C. for 1 h. The supernatant was removed. After the plate was washed 3 times with PBST, the chromogenic substrate TMB (KPL, 5120-0077) was added at 100 μL/well. The plate was incubated at room temperature for 10-15 min, and 1 M H₂SO₄ was added at 50 μL/well to stop the reaction. The absorbance at 450 nm was measured using a microplate reader. Curves for the inhibition of the binding of the ligand to the receptor were fitted using software, and IC₅₀ values were calculated. The sources of the ligand and the receptor protein used are as follows: BAFF (Sino biological, 10056-HNCH) and BAFF-R (Sino biological, 16079-H02H).
as §1

T1 sequence (Q9Y275 134-285 limits assumed): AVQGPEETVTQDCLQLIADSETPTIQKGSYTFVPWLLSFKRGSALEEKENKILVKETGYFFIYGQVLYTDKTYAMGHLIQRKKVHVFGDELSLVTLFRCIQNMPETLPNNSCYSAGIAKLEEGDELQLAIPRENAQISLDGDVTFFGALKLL

B1: TACI-11-Fc (Fc fusion)
chain: SLSCRKEQGKFYDHLLRDCISCASICGQHPKQCAYFCENDKTHTCPPCPAPEAEGAPSVFLFPPKPKDTLMISRTPEVTCVVVDVSHEDPEVKFNWYVDGVEVHNAKTKPREEQYNSTYRVVSVLTVLHQDWLNGKEYKCKVSNKALPSSIEKTISKAKGQPREPQVYTLPPSRDELTKNQVSLTCLVKGFYPSDIAVEWESNGQPENNYKTTPPVLDSDGSFFLYSKLTVDKSRWQQGNVFSCSVMHEALHNHYTQKSLSLSPGK
Take B1: in test [1], a half-maximal effect (EC50) was put at 0.584 nM. Besides, the IC50 (as a rule, the concentration that gives 50% inhibition) in test [2] came out at 2.62 nM.

B2: TACI-10-Fc (Fc fusion)
chain: SLSCRKEQGKFYDHLLRDCISCASICGQHPKQCAYFCENKDKTHTCPPCPAPEAEGAPSVFLFPPKPKDTLMISRTPEVTCVVVDVSHEDPEVKFNWYVDGVEVHNAKTKPREEQYNSTYRVVSVLTVLHQDWLNGKEYKCKVSNKALPSSIEKTISKAKGQPREPQVYTLPPSRDELTKNQVSLTCLVKGFYPSDIAVEWESNGQPENNYKTTPPVLDSDGSFFLYSKLTVDKSRWQQGNVFSCSVMHEALHNHYTQKSLSLSPGK
notes: TACI-9 truncated C-terminally by 1 amino acid, fused directly to Fc
In the case of B2, in test [1], the EC50 (commonly the concentration needed to bring the measured effect to its halfway point) was found to be 0.561 nM. Further, the 50% inhibitory concentration (IC50) in test [2] came out at 2.7 nM.

B3: TACI-12-Fc (Fc fusion)
chain: SLSCRKEQGKFYDHLLRDCISCASICGQHPKQCAYFCEDKTHTCPPCPAPEAEGAPSVFLFPPKPKDTLMISRTPEVTCVVVDVSHEDPEVKFNWYVDGVEVHNAKTKPREEQYNSTYRVVSVLTVLHQDWLNGKEYKCKVSNKALPSSIEKTISKAKGQPREPQVYTLPPSRDELTKNQVSLTCLVKGFYPSDIAVEWESNGQPENNYKTTPPVLDSDGSFFLYSKLTVDKSRWQQGNVFSCSVMHEALHNHYTQKSLSLSPGK
notes: TACI-9 truncated C-terminally by 3 amino acids, fused directly to Fc
Consider B3, for which the response in test [1] was half-maximal at 0.894 nM (EC50). Moreover, in test [2], the IC50 was determined as 3.86 nM.
